Measured values: patent publication US20060115482A1, “Modifications of histone proteins as indicators of cell proliferation and differentiation” (The Regents of the University of California, priority 2004, published 2006)

Columns and labels:
[1] = molecular target: recombinant histone H2B (unphosphorylated) (Drosophila) (UniProt P02283); settings: scale: % of the activity determined for TFIID, TAF1 and CTK
[2] = molecular target: native nucleosomes purified from 0-6 h Drosophila embryos (H2B in nucleosomes) (Drosophila) (UniProt P02283)
[3] = molecular target: recombinant histone H2B (unphosphorylated) (Drosophila) (UniProt P02283)

kinase activity (radiolabeled H2B cut from the gel, scintillation counting) [1] | turnover value for phosphorylation of H2B-S33 (in vitro kinase assay, scintillation counting) [2] [s⁻¹] | turnover value for phosphorylation of H2B-S33 (in vitro kinase assay, scintillation counting) [3] [s⁻¹] | Substance
< 0.1 |  |  | CTKΔ1600 (CTK polypeptide lacking the S/T-kinase motif) (from UniProt P51123) (enzyme)
< 0.1 |  |  | CTKΔATP (CTK polypeptide lacking the ATP binding motifs) (from UniProt P51123) (enzyme)
< 0.1 |  |  | CTK(D1538A) (from UniProt P51123) (enzyme)
 | 2.5 | 2.5 | recombinant TAF1 (Flag(M2)-epitope tagged, immunopurified) (from UniProt P51123) (enzyme)
 | 3.3 | 2.6 | TFIID (endogenous Drosophila melanogaster TFIID, immunopurified) (from UniProt P51123) (enzyme)
 | 2.6 | 4.4 | TAF1 COOH-terminal kinase domain (CTK; amino acids 1496-2132) (from UniProt P51123) (enzyme)
